The source of these data is publication PMC10279758.

The assay concerns the target Arabidopsis thaliana Receptor-Like Protein 30, GFP-tagged (RLP30-GFP) (Arabidopsis thaliana) (UniProt Q9MA83).
UniProt Q9MA83, sequence (Q9MA83 31-786): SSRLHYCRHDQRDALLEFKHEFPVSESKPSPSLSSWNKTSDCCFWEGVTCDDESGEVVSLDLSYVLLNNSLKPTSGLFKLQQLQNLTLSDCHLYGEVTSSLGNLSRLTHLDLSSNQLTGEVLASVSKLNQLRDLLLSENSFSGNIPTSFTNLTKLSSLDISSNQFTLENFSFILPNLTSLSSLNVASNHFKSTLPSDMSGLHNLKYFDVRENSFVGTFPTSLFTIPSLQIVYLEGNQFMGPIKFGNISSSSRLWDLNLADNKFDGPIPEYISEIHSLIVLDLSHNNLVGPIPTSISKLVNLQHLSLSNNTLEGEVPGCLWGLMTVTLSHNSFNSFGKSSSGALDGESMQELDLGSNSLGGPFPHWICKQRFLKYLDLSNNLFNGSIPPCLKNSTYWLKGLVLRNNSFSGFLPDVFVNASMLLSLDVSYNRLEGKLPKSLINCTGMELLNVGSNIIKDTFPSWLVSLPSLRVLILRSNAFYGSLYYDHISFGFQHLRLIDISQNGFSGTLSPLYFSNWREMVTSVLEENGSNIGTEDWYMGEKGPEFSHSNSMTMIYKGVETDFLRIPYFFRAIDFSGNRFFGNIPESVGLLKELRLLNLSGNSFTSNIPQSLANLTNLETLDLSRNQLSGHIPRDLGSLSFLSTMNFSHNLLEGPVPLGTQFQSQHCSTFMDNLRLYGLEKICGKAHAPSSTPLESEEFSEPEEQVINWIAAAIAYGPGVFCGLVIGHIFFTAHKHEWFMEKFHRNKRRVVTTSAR

In turn, “SMALL CYSTEINE-RICH PROTEIN FROM S. SCLEROTIORUM, myc-tagged (SCP^Ss-myc) (ligand)” registered an ethylene production in Arabidopsis Col-0 plants, half-maximal induction (EC50); the protein applied was His-tagged SCP^Ss from P. pastoris, affinity purified via His-Trap columns of 26 nM.
